In a protein production outcome set (Wang et al. 2014):

Assay: label from the status in PepcDB records
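Note: failed if final PepcDB status was selected cloned or expressed and not failed if soluble or beyond.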

For “MKKLILSALVLGGAMTFTAQAQNKAAEPAEEFFLEGRAMFIRQNYVGALDQFRLYRLHVGQEHALEVDYYSIIADYLLGADHDYVLSAVGNFLDNFPESIDKSRVRLLTGELMIRHEQYLRANTIFSDIDDRTLNDEDLAAYLLYYAYVRMQLSESNALAEQMLLKASESRGELGGRACLLLAAIQIEDGRIDEAEQTLSRLKNRPQFADEADAYIAEIQLLRGDYREAAEIADRLLSRNSPMRQRPQLLRVAGNAYYRLGDSNKTIDYLSDYSEKVGDRIAPADAYALGVTYYKQGLMKEALRPLAAATTDAGSLGAESALYLGQAQLAEGMTSEALMAFEKAATQDVNRPVREVGMYNMAMLMRSTGQSSFGQSVRIAENFLNEFPRSSHREQMAAILVESYFTGKDYNSSLRSIQKIAQPTASILAAKQFVLNRMAEQKEAAGYDSEALSFVSSSISMGNKGEYFPEAYFLRGNLRYRAGDFPTAAADYRAYISAAGDRDAANLPLGYYRLGYSLFNAERYDMALEAFKEYVSRSGIAPNLSADAYARIGDCRYMKRDFHGAREAYSMAYRVYPSGGDYALLRRARLEGLAKQYADQIQTLDKLIREFPDSRHLTAALYEKGCGAVLSGKHNVAEEAFNAVVKRSPDSREARQSSLQLGLLYYNTGRTKEAIRTYQRIIDRYPRSEETTVALSDLRSIYLEEDRIDEYSTYVRGLKDKVSIAPSETEQLGFLSAERKYRRRQPDARRDLEAYLERYPQGSDRHKAELYLADLDYQAGNADAAYNRYSRLVNSPGLPEDYKIDARLRLGRMQYERKEYKAALQSFQSVLDTDGAEAVRDQAVQGVTESAYADKDYRRVIDVIAGLKNQAALPHTLRLYRAKSYQALKMNREAIADYELLAEDFSTATGAEAVVMQAQLEMEAKRLSKAKSILEKFIAKSTPQQYWLARGFILLSDIYKKEGDTFTARQYLESLEKNYPNHEDDIHEQIAQRLE”, the protein production was “failed”.
In the case of “MSLNVKNDFSILIIEDDKEFADMLTQFLENLFPYAKIKIAYNPFDAGDLLHTVKPDVVMLDLMMVGMDGFSICHRIKSTPATANIIVIAMTGALTDDNVSRIVALGAETCFGKPLNFTLLEKTIKQLVEQKKATSEGHHHHHH”, the protein production is reported as “not failed”.
In the case of “MSQDNYFSRMLRGEAPVPAVAGTLGGVIRAVDLEAGSLESDYVATDAFLNPVGQVQGGMLGAMLDDVTAMLVTATLEDGASCSTLNLNLSFLRPAQAGLLRGRARLERRGRNVCNVVGELSQDGKLVATATATCMVARRA”, the protein production is reported as “not failed”.
For “MKYLAGIVTFNPNIERLDQNIRAIYPQVSHIYIVDNGSKNKEEISQLVADYNEEGHLTVDYLTENKGIAYALNCIGQFAVAQEFDWFLTLDQDSVVLGDLIDNYENYLHLPKVGMLSCLYQDMNRENLVMQEFDYKEIEECITSAALMKTSVFEETSGFAEEMFIDFVDSEMNYRLSEMGYKTYQVNFIGLLHEIGHSSRVKKFGHVFHVLNHSPFRKYYMIRNAIYIIKKYGKKKRYKYLVFMRNEFVRVLVAEEQKSKKIVAMIKGLKDGLLMKVDKYGKLEHHHHHH”, the protein production was “not failed”.
In the case of “MSRGHCILAHGFESGPDALKVTALAEVAERLGWTHERPDFTDLDARRDLGQLGDVRGRLQRLLEIARAATEKGPVVLAGSSLGSYIAAQVSLQVPTRALFLMVPPTKMGPLPALDAAAVPISIVHAWHDELIPAADVIAWAQARSARLLLVDDGHRLGAHVQAASRAFAELLQSL”, the protein production is reported as “not failed”.
For “MQSAYSFLPQVIAHRGSSGQAPENTLASLHLAGQQGIKWVEIDVMLSGDGIPVIFHDDYLSRTTDGDGLIYKTPLAELKQLDAGSWKGQEYQQETIPTLLEAIEVISQYGMGLNLELKPCEGLEEETIAASVEVLKQHWPQDLPLLFSSFNYFALVSAKALWPEIARGYNVSAIPSAWQERLEHLDCAGLHIHQSFFDVQQVSDIKAAGYKVLAFTINDESLALKLYNQGLDAVFSDYPQKIQSAIDSHIN”, the protein production was “not failed”.
With “MTGNSFHVSGYGPDKAGWTRLFARDSMARRLDWPILLAAVALSLMGSLLVYSATRNRTELNQGDQYYFLTRHLLNTGIGLALMVATVWLGHRALRTAVPLLYGFSVFLILLVLTPLGSTINGAHSWIKLPGGFSLQPSEFVKITIILGMAMLLAARVDAGDRPHPDHRTVLQALGLATVPMLIVMLMPDLGSVMVMVIIVLGILLASGASNRWIFGLLGAGTAGALAVWQLGILDDYQIARFAAFANPALDPAGVGYNTNQARIAIGSGGLTGSGLFEGSQTTGRFVPEQQTDFVFTVAGEELGFLGAGLIIALLGVVLWRGCRIARSTPDLYGTVVAAGIVAWFAFQTFENVGMTLGIMPVTGLPLPFVSYGGSSMFAVWIAVGLLQSITVQRPMSA” the protein production was “failed”.
For “QKYQALLANNVENTAKEALHQLAYTGREYNNIQDQIETISDLLGHSQSLYDYLREPSKANLTILENMWSSVARNQKLYKQIRFLDTSGTEKVRIKYDFKTSIAGPSLILRDKSAREYFKYAQSLDNEQISAWGIELERDKGELVYPLSPSLRILMPISVNDVRQGYLVLNVDIEYLSSLLNYSPVRDFHIELVKHKGFYIASPDESRLYGDIIPERSQFNFSNMYPDIWPRVVSEQAGYSYSGEHLIAFSSIKFVSNEPLHLIIDLSNEQLSKRATRDINDLIQES”, the protein production was “not failed”.
In the case of “MKVSDILTVAIRLEEEGERFYRELSEHFNGEIKKTFLELADQERIHAEIFRKMSDQENWDEVDSYLAGYAFYEVFPDTSEILRRKDLTLKEVLDIAISVEKDSIILYYELKDGLVNSDAQKTVKKIIDQEKEHLRKLLEMKREST”, the protein production is reported as “not failed”.
With “MYQTQTNKEKFVLFLKLFIPVLIYQFANFSATFIDSVMTGQYSQLHLAGVSTASNLWTPFFALLVGMISALVPVVGQHLGRGNKEQIRTEFHQFLYLGLILSLILFLIMQFIAQPVLGSLGLEDEVLAVGRGYLNYMLIGIMPLVLFSICRSFFDALGLTRLSMYLMLLILPFNSFFNYMLIYGKFGMPRLGGAGAGLGTSLTYWAIFIVIIIVMSLHPQIKTYHIWTLERIKAPLIIEDIRLGLPIGLQIFAEVAIFAVVGLFMAKFSSIIIAAHQAAMNFSSLMYAFPLSISTALAITISFEVGAERFQDANTYSRIGRLTAVGITSGTLLFLFLFRENVAAMYNSDPHFVAITAQFLTYSLFFQFADAYAAPVQGILRGYKDTTKPFMIGAGSYWLCALPLAVILEKNSQLGPFAYWIGLITGIFVCGLFLNQRLQKIKKLYY” the protein production was “failed”.
For “ALAETVSDFRLPNGLEVVVIEDHRAPVVTHMVWYRVGAADEPPGHSGIAHFLEHLMFKGTDEMSAGEFSATVEAQGGDDNAFTSWDYTAYFQRVAADRLDLMMKMEADRMRDLQMTEEDVRTERQVVLEERSQRTDSDPGAVFSEQSRAAAYLNHPYGIPIIGWRHEIEQLGREDAFSFYRTYYAPNNAILVVAGDVDPAEVRRMAEEHYGALEPTP”, the protein production was “failed”.
With “MRVVIVGAGKVGYSLAQYLTQEDHEVIVIEENEERRAIVQNTLDVMTISGNGASPRVLLDPEVRKAELMIAVTDMDEVNMIACMAAKQVGIKRTIARVRNQEYAEKDKIKFNEALGIDLTINPEMVTALEIKRILLTPSALDVEDFAGDRVRMIEVKMPSDSKLINTSLTQLTLPSHTLVAGILRNGRMLIPHGSDMLLPNDCVFFVGEVSAIKKIEDHFTVRKSKVERVLIIGAGRIGRHLAMILEKSDIAVKIIDKDMERCQELAESLDEGLVLCGEGTDIELLTEEGVGEADAVLCLTDDDKLNLLIALLAKHLGAPRTFVRVGRPDYISLMEKVGVDVVLSPRILTAGVILRYVRRSDVVSVSLLEGAKAEAMEIIIPPLSQVTHKKLKDAKLPKNSLIGSIVRDEEIIIPNGETVLKPGDRAIIFALPDTVPTVVRLFENKLESK” the protein production was “failed”.
In the case of “MEKQPNKLIREKSPYLLQHAWNPVDWHPWGEEAFSRARETGRPIFLSSGYSTCHWCHVMEHESFENAETAALLNRHFVPVKLDREEHPDVDHLYMMFVQATTGRGGWPMSVWMTPDLKPFFGGSYFPATERWGMPSFRSVLEHLANLWEHDRPRLLASAGSIMDQLSGLTRP”, the protein production is reported as “failed”.
With “MSSEVQKGPRALTVGRGDGRIWGMSSAERLARIYRRLDLVETPAVDLSHPVVAVDAGWVFDESLIKALAGREGAVLVDDAGRAVAVHAPADLAYAASEALAAGNDPAGLDPRFTRLTALELGSAYNSALRKREPPVLERLTPETVRAVEKRLFQGSYKGVTDFVTKYVWPAPARVVTRWCALAKMTPNQVTFIGFVMVLAATWLFWHGHFGWGLVCAWIMTFLDTVDGKLARVTLTSSKWGNVFDHGIDLVHPPFWWWAWFVGVYAVGQEIPYAALSLAIVVGGYVAQRVEEGIFLALFKLEMHAWRPFDSFFRLITARRNPNLILLTGCAMVGRPDLGFTLVAIWTAVCFVVHAIQILQGLMAPKGSIQSWLAK” the protein production was “failed”.
For “MINYNKTQHLIESMVFERVVPGVNYAFIKNKQIFTSTTGFASIYPEVTQLSPFAEYDLASLTKVLATENVLLKLYDQGELNFTEPLKEFIPTFKDPKVRLYHLLTHTSGIRGWIPHRDELSHDELLNALINLPVTDEFEHKMRYADTNFILLGLVIKSIFGASVQEVATKEIFDQMPLINTTFTPNKSECVPTAIINDQVLQGIPHDPKARQLGLDCGSAGLFSNMRDLITFSQGYLGLKRNVLPYSQDTVSELFDDKTPKGVKPRSWGWDIRFDPKYHYPIILHTGFTGTLIILDRLKKSGLILLTNRVHPTGHNTIFLAMREKIIRSFLNENSKI”, the protein production was “failed”.
With “MRDFLVRYFPTFMLTVLLGCFSASLLLSLAGTTYWRAMAPPQRDEYLLFGLLVLIPLLVLGNLLIVRGISRAVWLVAGYFVACLLGVVPMFQYHPHQGVYLFGVLLPLLGLLLLNSKRHREMRERLLQIRQQRQRFKQQRKRG” the protein production was “failed”.
For “MSQFWYSEETASRLAEELLQQAGEHGRIACLSAPSVYQKLKQLESVRSDGVSAVLLEFDRRFAAYGDEFVFYDYNNPLCLPEDLLPQSFDIVIADPPYLSEECLSKVTLTVKHLTKGKILLCTGAIMEEHAGKLLDLKMCSFLPRHNHNLANEFRCYVNYESRLLS”, the protein production was “failed”.
In the case of “MENLKNIQPREDFNWEEFEAGGVHAAVSRQEQEAAYDKTLNTIKEKEVVMGRVTAINKREVVINVGYKSEGVVPATEFRYNPELKVGDEVEVYIENQEDKKGQLVLSHRKARAARSWERVNEALEKDEIVKGYVKCRTKGGMIVDVFGIEAFLPGSQIDVRPIRDYDAFVEKTMEFKIVKINQEYKNVVVSHKVLIEAELEQQKKEIIGKLEKGQVLEGIVKNITSYGVFIDLGGVDGLIHITDLSWGRVAHPEEIVQLDQKINVVILDFDEDRKRIALGLKQLMPHPWDALDSELKVGDKVKGKVVVMADYGAFVEIAQGVEGLIHVSEMSWTQHLRSAQDFLHVGDEVEAVILTLDREERKMSLGLKQLKPDPWADIETRFPVGSRHHARVRNFTNFGVFVEIEEGVDGLIHISDLSWTKKIKHPSEFTEVGADIEVQVIEIDKENRRLSLGHKQLEENPWDVFETVFTVGSIHEGTVIEVMDKGAVVSLPYGVEGFATPKHMVKEDGSQAVLEEKLPFKVIEFNKDAKRIIVSHSRVFEDEQKMAQREANAERKAEAKAAQKEAAAEAANPAQAVEKATLGDLGELAALKEKLSEN”, the protein production is reported as “failed”.
For “MPMTVVSGRFSTALLPTCFSLSRLHSVKYAAQRRVVFVSRSAHASSASVSVETNSNSNVDFVIEKKDKNRGEKKILACPICYNSLAWISQPNGLIESAASGIQVQCNTCKRSYSGNETHLDLAVASGSKRYSEPMPLSTELFRTPLVSFLYERGWRQNFIWGGFPGPEKEFEMAKAYLKPVLGGNIIDASCGSGMFSRLFTRSDLFSLVIALDYSENMLRQCYELLNKEENFPNKEKLVLVRADIARLPFLSGSVDAVHAGAALHCWPSPSSAVAEISRVLRPGGVFVATTFIYDGPFSFIPFLKNLRQEIMRYSGSHIFLNERELEDICKACGLVNFTRVRNGPFIMLSATKPS”, the protein production was “failed”.
With “MSPLHRFSRTEILIGPEKLQRLRESTVAIFGLGGVGSFAAEALCRAGVGRLVLVDFDDICLTNVNRQLHAMDGTVGKAKVQVMAERLRLINPDADIVPHKDFYEAGNSDFLLSGGYNYVVDAIDHITSKLHLIRSCRERELRIISSMGAANKLDPTKIRVADISKTSVCGLARVVRKQLRRQGIKSGVTVVYSTEEPREQAIADAGCRSNCICPNKEEQRFSCEHRRNILGSISFIPSIFGLTMAGVVVNDLAKD” the protein production was “failed”.
